In a protein production outcome set (Wang et al. 2014):

Test: label from the status in PepcDB records
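Also: failed if final PepcDB status was selected cloned or expressed and not failed if soluble or beyond.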

| Sequence | protein production |
| --- | --- |
| MSAQSSVQPELAVRQWRTPLELGFLGVVWGCSFLFMRVAAPKFGTVVLVEIRLALGALVLLPFLWLARERFPLHRWPMLAAIGVLNSALPFLLFAWGAQHAPAAVGAICNAMTVLFTALIAFLFFGERIGTRRALALLVGFIGVLVLATGKSAGLSVGPAALAGATASLLYGIGYNLVKRHMGDLPPAASAASTLGCSALLLAPLAWWQWPTTPVPAVAWACATALGVVCTGLAFLMYYRLIQRIGPARASTVTYLVPVFGALLAWSLLGEPLTWTMLVAAVLILGSVAFSQRAR | failed |
| MSRQIFYMPFSLRFLFLLIIITIFGLGSLFLGVIVSAFMKIGFSAEDALLILFLSLLGSGINIPLTTLKSDIPVVKDNYIKFFGISYRIPTRQIVRNETLLAINVGGAVIPVLISAYLLTQFPSSLLLAGAGVAIVAIVTHSVARPIKGVGIATPALIPPLTSVLSAVLLTSIVHIPGCPAEPCRVIIAYTGGVLGTLIGADLLNLGKIKNLGAPVASIGGAGTFDGIFLSGFIALLLI | failed |
| MPPVPGVPFRNVDNDSPTSVELEDWVDAQHPTDEEEEEASSASSTLYLVFSPSSFSTSSSLILGGPEEEEVPSGVIPNLTESIPSSPPQGPPQGPSQSPLSSCCSSFSWSSFSEESSSQKGEDTGTCQGLPDSESSFTYTLDEKVAELVEFLLLKYEAEEPVTEAEMLMIVIKYKDYFPVILKRAREFMELLFGLALIEVGPDHFCVFANTVGLTDEGSDDEGMPENSLLIIILSVIFIKGNCASEEVIWEVLNAVGVYAGREHFVYGEPRELLTKVWVQGHYLEYREVPHSSPPYYEFLWGPRAHSESIKKKVLEFLAKLNNTVPSSFPSWYKDALKDVEERVQATIDTADDATVMASESLSVMSSNVSFSE | failed |
| VATLNESIEAGLEPGAVALILEAFPIEDRVRLWRALPLELHIDVLTEMRADVRFSIINALSEVELKLTLAKLDNLSLIEWADSLPESIINEALALIEKDELELYDQANEYEDDELGRWAERKIITLPFNITVGTAKQLMERYSYDTPQQVYLINRNKQFRGAVNYYEILRSDSGVRLKTLEIETVTVLDSKMTLPEAVEALEHSALPALPVTDADQTLIGEVDWQFALSTQREIYEARLMAGTGMDEGDDLFAPVLKSSQKRGV | not failed |
| MALQAGVEKGENLVVAAPTGSGKTFIALVAIVNSLARAGGRAFYLVPLKSVAYEKYTSFSILSRMGLKLKISVGDFREGPPEAPVVIATYEKFDSLLRVSPSLARNVSVLIVDEIHSVSDPKRGPILESIVSRMLASAGEAQLVGLSATVPNAGEIAEWIGGKIVESSWRPVPLREYVFKEYKLYSPTGGLREVPRVYGLYDLDLAAEAIEDGGQALVFTYSRRRAVTLAKRAAKRLGRRLSSREARVYSAEASRAEGAPRSVAEELASLIAAGIAYHHAGLPPSLRKTVEEAFRAGAVKVVYSTPTLAAGVNLPARRVVIDSYYRYEAGFREPIRVAEYKQMAGRAGRPGLDEFGEAIIVAERLDRPEDLISGYIRAPPERVESRLAGLRGLRHFILGIVAPEGEVSIGSIEKVSGLTLYSLQRGLPRETIARAVEDLSAWGLVEVKGWRIAATSLGREVAAVYLDPESVPVFREEVKHLSFDNEFDILYLISTMPDMVRLPATRREEERLLEAILDASPRMLSSVDWLGPEEMAAVKTAVVLKLWIDEASEDTIYGEWGVHTGDLLNMVSTAEWIASGLSRIAPYLGLNSKVSHILSVIARRIKHGVKPELLQLVEIPGVGRVRARILFEAGYRSIEDLATARAEDLMRLPLIGPSTARQILEFLGRVDEAREAEAREMLARKGLLSYLEGDAVAGEEGE | failed |
| MKVLLIQPPSSTAFMDKVYMYEPLGLEYLGAGLQEDGHEVLLLDARLEPDFEKAFHSFQPDIVGITGYTNHLNIVKAIAARFKSINPEVFIIVGGHHATVKPADYNDQAIDLIIIGEGVFTLRQVLKHKESLLPFEDIPGLAIPGAVMKFTAERPYTPLDDLPFPDRSLTARYRNHYFSDWMKPIASIRTSLGCFGRCNFCALWSITNGKYLQRNPERIVAELQGIQEEIVFFCDDESMCDTRRMDQLADLIQEAGIRKKYFLYGRVDTIVKHPELFAKWKNIGLIQVFVGFESFSDERLQGLNKNITVAQQEEAVKILNDLNIDIYASFVIDPSFTRQEFTQLIAYTRKLNIAYAALSVLTPLPGTALYEQNKDRLLTHDPKFFDFMHTVLPTALPLKQFYSEYARTLMKATPIPRYFRFIAKFDRQRRLSTMKELYGVVGDVRKGYQWHQAKES | failed |
| MEMKKSGRSLKMIFTQYFATVSLAFIALLCLIWAIFVISLNTKLIIPANQTEQELHRLEDKIEKADTFQAKRLPKDTAYLLMTKDGKIKESNMSKNLQQQALASYSGNAVSPNDYGYFMVFKRQKEVCIVNYRLEAHYSVAWMNKYLPNVSLLGLILTGLGVLLVFTLVTILFARRLQRQLSPIIAATQKIAKQNLDFTVQSSDIKEFNQVLNSLDTMRAALRDSLMHSWQVEQEKQNQIAALTHDIKTPLTVIKGNTELLKQTELSETQEAFVGYSLKNIGQVETYLQQLSYLAKNSQLQDFHPEKIKVAAFLEELSQNSQALAATKDIKIQFVNNLSDAQLTTYWDKGLLARALMNIISNAVEHSPQGSQLQLVCHLENELFQLTCLDSGQGFSREALDKAKMQFFQDDTSRHDRKHSGLGLTIADNIIRLHGGSLSLSNDAKTASGRVDVVLPLAKM | failed |
| MINEIGHYVLVLALGVGLIVSTLPVIGARRNDRALMDVASLGSVLMFLLVGFSFAALTHAYAVSDFSVRNVWENSHSLMPMLYKLTGVWGNHEGSMLLWLLILVFFSALVAAFGGNLPETLKANVLAVQAWISVAFLLFILLTSNPFLRLERVPAEGQDLNPILQDFGLAIHPPLLYLGYVGFSVCFSFAVAALLEGRIDAAWARWVRPWTLAAWTFLTAGISMGSYWAYYELGWGGWWFWDPVENASFMPWLAGTALLHSALVMEKREALKIWTVLLAIMTFSLSLLGTFLVRSGVLTSVHAFATDPSRGIFILGILTIFIGGAFALFAWRAPSLKAGGLFAPISREGALVLNNLILTVSTATVLIGTLYPLILETLTGEKISVGAPFFNLTFGLLMIPVLIVTPFGPMLAWKRGDLLGAFQRLYVAAAIAALAGLTLWYIENGGPVLAALGIAAGFWLIFGALTDLWYRANFGKLAFGIAFRRLKGLPRSAFGTALAHMGLGITVLGIVIVTTYETETVLEMKQGTVAEAGGYSLTFDGIRHAVGPNFTEDRGHFTVRKAGVEVADVWSSKRLYTARRMPTTEAGILTFGLSQLYVSLGDPMADGGMVVRIWWKPFILCIWGGTLFMMAGGFISLSDRRLRVGAPTRKAKPVRAAMPEAAE | failed |
| MKPDDLPSDVSSDPLLRLRRQISDEASQCVACGLCVPHCPSYRVTLSEADSPRGRIALMSGVAAGRIPMNARFALHMDRCLTCRACEAVCPNHVRFGELIDDAREMISSPPLEFGGNNPGARVSSFRKWVERELIARPSRIDALRPLLRFYQRSGLQKWVRKSGLLGKTKLALLEAQIPFIDQPRSSSWSVVYPAVGKPRGEVGLFLGCVARVADATTLDAALFVLNQLGYVVHVPTGQTCCGALHQHRGDMDAAAQLERQNVEAFAGLDLGAIITTASGCGAQLSEYSSFSGSQRTTRAPAVSSQAGGETTRRSPPKVLDISEFLAEAEGWEDARFQPLPHKILVHEPCTLRNVLRASTYAYKLLERIPQAQVVPLAGNDQCCGAAGTYFLDQPEISAALLEDKVTALKAGQACYLATSNVGCALHIAAGLRRPGLGIEVIHPVTLIARQMGMQSQSLK | failed |
| VTATQLAAKATTLYYLHKQAMTDEVSLLLEQALQLEPYNEAALSLIANDHFISFRFQEAIDTWVLLLDSNDPNLDRVTIIESINKAKKLM | not failed |
| MTPLMLMVVAGAGIALLLFLVLKYKFQPFVALMLVSIIVALVAGVKPADLVATIEGGMGKTLGHIAIIIALGAMIGRIIELSGGAEALAKTLINRFGNRRTPLALTVAGFMVGIPVFFEVGVIILMPLAYGVARAARKPLLIFALPMCAALLAVHAFLPPHPGAVAAASQLGADLGRVLMLGIPIVAVLCMIGYFVAGRMTRKTYPMTDDIRAEVYGPHVTNEDLEAWARNDYSGAREATETKTLGAEESASSLASKLPPAPAPGFGLIIALILLPIVLILMGTLATTLLPATSTLRAVLTVLGAPLVALLIDTLLCAWLLGSRRGWSRTQVSDVIGSALPGVAMVILIAGAGGVFGKVLVDTGIGAVVSEALRNTGLPVLALGFLLTLLLRAVQGSTTVALVTTAGILSPLIATLDLSANHLALLCLAMGGGGLAMSHINDAGYWMFTKLAGLNVADGLRTWTVLVTLLGTLGFVITLLLWPFV | failed |
| MTETIPVFDGHNDFLLRLLRNPANRETIWLKGDGTGHLDLPRMKEGGFAGGFFAIYVPSPQAHDAAHFEAMMDAPPFELPLPPMIRAEQAQPVALAMAGHLLWMERAARGRFKVCRTAAEVRSCHADGIVSGIMHMEGAEAIGADLDALHLFHSLGLRSLGPVWSRPTVFGHGVPFRFPGSPDTGEGLTEAGRRLVAECNRLKIMLDLSHLNEKGFDDVARLSDAPLVATHSNAHAVTPSTRNLTDRQLAMIRESRGMVGLNFATSFLREDGRRSAEMGWEPVLRHLDHLIDRLGEDHVGMGSDFDGATIPQGIADVTGLPALQAAMRAHGYDEPLMRKLCHENWYGLLERSWG | not failed |
| MGRPRVARLDRERIAEAALELVDRDGDFRMPDLARHLNVQVSSIYHHAKGRAAVVELVRHRVVREIDGSAFERLPWDEAFSEWARSYRAAFSRHPTAIRLLATETVRDPGSLSVYHSAAAGLRGAGFPDDHIMAVITAAENFLLGAALDAAAPEVMIEADSTTTDDALTRALAAAPRGPERAEQAFELGLAALLAGFHHLLQECGAVQR | not failed |
| MEYEHITHSFEPVYDENSRILILGTLPSVASRENNFYYGHKQNRFWKLLAYLLDEPVPETIDEKKYMLFKNHIAIWDVIQSCDIKGSSDSSIKNVEPTDIRKILETADIKQVYANGNKAGALYKKYQLPLTGMEAVTLPSTSPANAAWSFERLCEAWTRILANL | failed |
| MTTDRPLSPPLDHAWIAARIPHSGAMCLLDQVVTWDDTHIRCTTTSHRAPDNPLRAHGRLAAVCGIEYAAQAMAVHGAILGNAQDRPRAGFLASVRSVEAHVERLDTIEAPLTIEAERIGGDGNNVLYRFSVRCGERVLLTGRAAVVLDAAGLGLPDAGALAKANAQAR | failed |
| MASEQEKTADFGFRTVAKDEKEVMVAEVFHSVAAKYDLMNDLMSFGIHRIWKRFTIECSGVRRNQRVLDLAGGTGDLTAKFSRMVGEGGEVILADINASMLKVGREKLRNKGIIDNINYVQANAEALPFPDDFFDCITISFGLRNVTDKNKALRSMYRVLKPGGRLLVLEFSKPVIKQLSTIYDAYSFHILPRIGEAVASDAGSYRYLAESIRMHPDQETLKGMMSDAGFDSVNYFNLTGGIVALHRGFKFLEHHHHHH | failed |
| MQHHKVAIIGAGAAGIGMAITLKDFGITDVIILEKGTVGHSFKHWPKSTRTITPSFTSNGFGMPDMNAISMDTSPAFTFNEEHISGETYAEYLQVVANHYELNIFENTVVTNISADDAYYTIATTTETYHADYIFVATGDYNFPKKPFKYGIHYSEIEDFDNFNKGQYVVIGGNESGFDAAYQLAKNGSDIALYTSTTGLNDPDADPSVRLSPYTRQRLGNVIKQGARIEMNVHYTVKDIDFNNGQYHISFDSGQSVHTPHEPILATGFDATKNPIVQQLFVTTNQDIKLTTHDESTRYPNIFMIGATVENDNAKLCYIYKFRARFAVLAHLLTQREGLPAKQEVIENYQKNQMYLDDYSCCEVSCTC | not failed |
| MMDVARAKFLPHEQVTFQVADATTLPFENEAFDAVVCQFGVMFFDKDTAFREAYRTLGRGGRYLFSVWDSRRYNPFASLAFEVLKQFFPLNPPRFLEAPVSSFEIDPIKEALIQSGFERIVISVQGREHDILDVRTFARGLVFSPVIEEIRERGGVEPEDIIAALAEALKREYGSRPTRYPMQAILFEAEKP | failed |
